# Measurements taken from US20080108569.
# Molecular target: 6His-tagged human Akt1, P31749
# Sequence (P31749 whole entry, looked up): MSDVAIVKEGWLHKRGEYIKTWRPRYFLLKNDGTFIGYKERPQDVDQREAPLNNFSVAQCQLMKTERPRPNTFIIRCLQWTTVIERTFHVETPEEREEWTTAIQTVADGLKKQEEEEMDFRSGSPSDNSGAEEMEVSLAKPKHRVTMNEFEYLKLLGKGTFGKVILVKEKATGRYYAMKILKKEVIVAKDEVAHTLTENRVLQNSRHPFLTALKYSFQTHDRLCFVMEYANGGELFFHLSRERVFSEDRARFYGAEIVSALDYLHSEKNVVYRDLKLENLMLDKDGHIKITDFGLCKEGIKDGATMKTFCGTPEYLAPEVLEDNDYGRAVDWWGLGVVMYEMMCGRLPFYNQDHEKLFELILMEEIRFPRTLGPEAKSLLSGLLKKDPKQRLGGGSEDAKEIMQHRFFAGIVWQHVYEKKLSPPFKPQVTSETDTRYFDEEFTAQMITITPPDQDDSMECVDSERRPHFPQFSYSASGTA
protein,measurement,value
HA-tagged full length PHLPP2 (protein) MGYPYDVPDYAMKRNGSRNCLNRRSRFGSRERDWLREDVKRGCVYLYGADTTTATTTTTTSSSSSSSSSSSDLHLVLCTVETPASEICAGEGRESLYLQLHGDLVRRLEPTERPLQIVYDYLSRLGFDDPVRIQEEATNPDLGCMIRFYGEKPCHMDRLDRILLSGIYNVRKGKTQLHKWAERLVVLCGTCLIVSSVKDCQTGKMHILPLVGGKIEEVKRRQYSLAFSSAGAQAQTYHVSFETLAEYQRWQRQASKVVSQRISTVDLSCYSLEEVPEHLFYSQDITYLNLRHNFMQLERPGGLDTLYKFSQLKGLNLSHNKLGLFPILLCEISTLTELNLSCNGFHDLPSQIGNLLNLQTLCLDGNFLTTLPEELGNLQQLSSLGISFNNFSQIPEVYEKLTMLDRVVMAGNCLEVLNLGVLNRMNHIKHVDLRMNHLKTMVIENLEGNKHITHVDLRDNRLTDLDLSSLCSLEQLHCGRNQLRELTLSGFSLRTLYASSNRLTAVNVYPVPSLLTFLDLSRNLLECVPDWACEAKKIEVLDVSYNLLTEVPVRILSSLSLRKLMLGHNHVQNLPTLVEHIPLEVLDLQHNALTRLPDTLFSKALNLRYLNASANSLESLPSACTGEESLSMLQLLYLTNNLLTDQCIPVLVGHLHLRILHLANNQLQTFPASKLNKLEQLEELNLSGNKLKTIPTTIANCKRLHTLVAHSNNISIFPEILQLPQIQFVDLSCNDLTEILIPEALPATLQDLDLTGNTNLVLEHKTLDIFSHITTLKIDQKPLPTTDSTVTSTFWSHGLAEMAGQRNKLCVSALAMDSFAEGVGAVYGMFDGDRNEELPRLLQCTMADVLLEEVQQSTNDTVFMANTFLVSHRKLGMAGQKLGSSALLCYIRPDTADPASSFSLTVANVGTCQAVLCRGGKPVPLSKVFSLEQDPEEAQRVKDQKAIITEDNKVNGVTCCTRMLGCTYLYPWILPKPHISSTPLTIQDELLILGNKALWEHLSYTEAVNAVRHVQDPLAAAKKLCTLAQSYGCQDNVGAMVVYLNIGEEGCTCEMNGLTLPGPVGFASTTTIKDAPKPATPSSSSGIASEFSSEMSTSEVSSEVGSTASDEHNAGGLDTALLPRPERRCSLHPTPTSGLFQRQPSSATFSSNQSDNGLDSDDDQPVEGVITNGSKVEVEVDIHCCRGRDLENSPPLIESSPTLCSEEHARGSCFGIRRQNSVNSGMLLPMSKDRMELQKSPSTSCLYGKKLSNGSIVPLEDSLNLIEVATEVPKRKTGYFAAPTQMEPEDQFVVPHDLEEEVKEQMKQHQDSRLEPEPHEEDRTEPPEEFDTAL,dephosphorylation of Ser 473 by immunoprecipitated enzyme,60+4% dephosphorylation of Ser 473
same,dephosphorylation of Thr 308 by immunoprecipitated enzyme,no significant effect on Thr 308 phosphorylation
GST-tagged PP2C domain of PHLPP2 (protein) TSTFWSHGLAEMAGQRNKLCVSALAMDSFAEGVGAVYGMFDGDRNEELPRLLQCTMADVLLEEVQQSTNDTVFMANTFLVSHRKLGMAGQKLGSSALLCYIRPDTADPASSFSLTVANVGTCQAVLCRGGKPVPLSKVFSLEQDPEEAQRVKDQKAIITEDNKVNGVTCCTRMLGCTYLYPWILPKPHISSTPLTIQDELLILGNKALWEHLSYTEAVNAVRHVQDPLAAAKKLCTLAQSYGCQDNVGAMV,dephosphorylation of Ser 473 in 5 minutes (phospho-specific antibody),82+6% (Ser 473)
same,dephosphorylation of Thr 308 in 5 minutes (phospho-specific antibody),70+2% (Thr 308)
